This assay addresses human EME2 (His-EME2) (human). In words: co-purification of co-expressed subunits.

human EME2 (His-EME2) (human), sequence (A4GXA9 whole entry): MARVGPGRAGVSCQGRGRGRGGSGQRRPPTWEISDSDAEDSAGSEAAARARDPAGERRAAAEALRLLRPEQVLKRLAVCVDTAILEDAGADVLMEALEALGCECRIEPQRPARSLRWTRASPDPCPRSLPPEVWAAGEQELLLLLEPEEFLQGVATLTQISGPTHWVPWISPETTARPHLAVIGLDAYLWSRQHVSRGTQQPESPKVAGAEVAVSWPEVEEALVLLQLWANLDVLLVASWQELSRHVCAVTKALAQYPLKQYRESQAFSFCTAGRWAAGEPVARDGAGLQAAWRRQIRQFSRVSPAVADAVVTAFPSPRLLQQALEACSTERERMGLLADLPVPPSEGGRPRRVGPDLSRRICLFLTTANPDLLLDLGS

B1: human MUS81 (enzyme)
chain: MAAPVRLGRKRPLPACPNPLFVRWLTEWRDEATRSRRRTRFVFQKALRSLRRYPLPLRSGKEAKILQHFGDGLCRMLDERLQRHRTSGGDHAPDSPSGENSPAPQGRLAEVQDSSMPVPAQPKAGGSGSYWPARHSGARVILLVLYREHLNPNGHHFLTKEELLQRCAQKSPRVAPGSARPWPALRSLLHRNLVLRTHQPARYSLTPEGLELAQKLAESEGLSLLNVGIGPKEPPGEETAVPGAASAELASEAGVQQQPLELRPGEYRVLLCVDIGETRGGGHRPELLRELQRLHVTHTVRKLHVGDFVWVAQETNPRDPANPGELVLDHIVERKRLDDLCSSIIDGRFREQKFRLKRCGLERRVYLVEEHGSVHNLSLPESTLLQAVTNTQVIDGFFVKRTADIKESAAYLALLTRGLQRLYQGHTLRSRPWGTPGNPESGAMTSPNPLCSLLTFSDFNAGAIKNKAQSVREVFARQLMQVRGVSGEKAAALVDRYSTPASLLAAYDACATPKEQETLLSTIKCGRLQRNLGPALSRTLSQLYCSYGPLT
Turning to B1, the stoichiometry N stood at 1.
